Experimental data as given in patent publication US20230416333A1 (SHATTUCK LABS, published 2023).

Key:
[1] = molecular target: T1, CD19 expressed on the cell surface (UniProt P15391 20-556); assay: flow cytometry on HEK293-CD19 cells, anti-Fc detection
T1 construct: whole, on cells; also called HEK293-CD19 cells; CD19 on Daudi cells
T1 sequence (looked up): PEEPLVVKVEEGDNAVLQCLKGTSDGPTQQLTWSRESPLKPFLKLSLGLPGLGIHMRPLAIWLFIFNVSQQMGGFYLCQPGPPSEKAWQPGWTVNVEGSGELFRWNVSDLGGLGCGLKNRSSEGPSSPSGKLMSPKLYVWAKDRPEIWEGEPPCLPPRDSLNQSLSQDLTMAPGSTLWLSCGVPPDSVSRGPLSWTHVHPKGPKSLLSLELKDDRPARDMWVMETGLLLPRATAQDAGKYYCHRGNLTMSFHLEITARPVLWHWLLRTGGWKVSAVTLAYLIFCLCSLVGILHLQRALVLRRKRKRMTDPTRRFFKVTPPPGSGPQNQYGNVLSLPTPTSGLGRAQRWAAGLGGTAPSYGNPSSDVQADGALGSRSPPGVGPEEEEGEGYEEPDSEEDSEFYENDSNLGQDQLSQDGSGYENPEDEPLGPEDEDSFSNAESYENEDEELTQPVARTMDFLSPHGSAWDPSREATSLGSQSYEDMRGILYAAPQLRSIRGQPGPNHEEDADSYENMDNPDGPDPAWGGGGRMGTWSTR

[2] = molecular target: T1, CD19 expressed on the cell surface; assay: flow cytometry on Daudi cells; Daudi cells (CD19+), flow cytometry
[3] = molecular target: T2, recombinant CD19-His protein (human, UniProt P15391 20-291); assay: Octet (ForteBio) BLI, recombinant CD19-His immobilized on biosensor
T2 construct: Immobilized on the Octet biosensor; also called Human CD19
T2 sequence (looked up): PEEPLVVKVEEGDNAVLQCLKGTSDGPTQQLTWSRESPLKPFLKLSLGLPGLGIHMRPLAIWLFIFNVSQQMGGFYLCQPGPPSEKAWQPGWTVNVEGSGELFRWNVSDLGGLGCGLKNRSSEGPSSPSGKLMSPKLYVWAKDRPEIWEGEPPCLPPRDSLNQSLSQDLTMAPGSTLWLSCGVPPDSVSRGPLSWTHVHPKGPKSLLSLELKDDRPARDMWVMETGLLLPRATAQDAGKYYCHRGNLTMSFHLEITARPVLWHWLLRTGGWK
Text: A heterodimer lacking CD19scFv was used as a negative control.

EC50 [1]: 0.89 nM | EC50 [2]: 5 nM | Kd [3]: 13.8 nM
B1: BTN2A1/3A1-Fc-CD19scFv GADLEN protein (heterodimer with charged polarized linkers) (Fc fusion)
chain 1: QFIVVGPTDPILATVGENTTLRCHLSPEKNAEDMEVRWFRSQFSPAVFVYKGGRERTEEQMEEYRGRTTFVSKDISRGSVALVIHNITAQENGTYRCYFQEGRSYDEAILHLVVAGLGSKPLISMRGHEDGGIRLECISRGWYPKPLTVWRDPYGGVAPALKEVSMPDADGLFMVTTAVIIRDKSVRNMSCSINNTLLGQKKESVIFIPESFMPSVSPCAGSGSRKGGKRGSKYGPPCPPCPAPEFLGGPSVFLFPPKPKDQLMISRTPEVTCVVVDVSQEDPEVQFNWYVDGVEVHNAKTKPREEQFNSTYRVVSVLTVLHQDWLSGKEYKCKVSSKGLPSSIEKTISNATGQPREPQVYTLPPSQEEMTKNQVSLTCLVKGFYPSDIAVEWESNGQPENNYKTTPPVLDSDGSFFLYSRLTVDKSRWQEGNVFSCSVLHEALHNHYTQKSLSLSLGKDEGGEDGSDIQMTQTTSSLSASLGDRVTISCRASQDISKYLNWYQQKPDGTVKLLIYHTSRLHSGVPSRFSGSGSGTDYSLTISNLEQEDIATYFCQQGNTLPYTFGGGTKLEITGGGSGGGSGGGSEVKLQESGPGLVAPSQSLSVTCTVSGVSLPDYGVSWIRQPPRKGLEWLGVIWGSETTYYNSALKSRLTIIKDNSKSQVFLKMNSLQTDDTAIYYCAKHYYYGGSYAMDYWGQGTSVTVSS
chain 2: not shown
notes: The residue ranges were counted from the printed parts; also called BTN2A1/3A1-Fc-CD19scFv heterodimeric protein; human BTN2A1/3A1-Fc-CD19scFv GADLEN protein
